Results reported in patent publication US20260167959A1, “APTAZYME-BASED REGULATABLE GENE EXPRESSION SYSTEMS” (REJUVENATE BIO INC, priority 2022, published 2026).
Numbering of substitutions follows the chain as printed.

B1: RA178 (nucleic acid)
DNA: GCGCGTCCTGGATTCGCGGAAACGCGTACATCCGGAATACCAGCATCGTCTTGATGCCCTTGGAAGTCCAGCTGACGAGTCCCAAATAGGACGAAACGCGC
modifications: expressed or natural sequence
B2: RA177 (nucleic acid)
DNA: GCGCGTCCTGGATTCGCGGAAACGCGTACATCCAGCTGACGAGTCCCAAATAGGACGAAACGCAGTGATACCAGCATCGTCTTGATGCCCTTGGCAGCACTGC
modifications: expressed or natural sequence
B3: RA176 (nucleic acid)
DNA: GCGCGTCCTGGAATACCAGCATCGTCTTGATGCCCTTGGAAGTCCGGATTCGCGGAAACGCGTACATCCAGCTGACGAGTCCCAAATAGGACGAAACGCGC
modifications: expressed or natural sequence
B4: RA181 (nucleic acid)
DNA: GCGCGCCGGAATACCAGCATCGTCTTGATGCCCTTGGAAGTCCGGTCCTGGATTCGCGGAAACGCGTACATCCAGCTGACGAGTCCCAAATAGGACGAAACGCGC
modifications: expressed or natural sequence
B5: RA168 (nucleic acid)
DNA: GCGCGTCCTGGATCGAGAATACCAGCATCGTCTTGATGCCCTTGGAAGTCTCGTCGCGGAAACGCGTACATCCAGCTGACGAGTCCCAAATAGGACGAAACGCGC
modifications: expressed or natural sequence
B6: RA179 (nucleic acid)
DNA: GCGCGTCCTGGATTCGCGGAAACGCGTACATCCAGCTCGGAATACCAGCATCGTCTTGATGCCCTTGGAAGTCCGGACGAGTCCCAAATAGGACGAAACGCGC
modifications: expressed or natural sequence
B7: RA169 (nucleic acid)
DNA: GCGCGTCCTGGCCGGAATACCAGCATCGTCTTGATGCCCTTGGAAGTCCGGATTCGCGGAAACGCGTACATCCAGCTGACGAGTCCCAAATAGGACGAAACGCGC
modifications: expressed or natural sequence
B8: RA189 (nucleic acid)
DNA: GCGCGTCCTGGATTCGGAATACCAGCATCGTCTTGATGCCCTTGGAAGTCCGCGGAAACGCGTACATCCAGCTGACGAGTCCCAAATAGGACGAAACGCGC
modifications: expressed or natural sequence
B9: RA173 (nucleic acid)
DNA: GCGCGTCCTGGATTCGCGGAAACGCGTACATCCAGCTGACGAGTCCCAAATAGCGGAATACCAGCATCGTCTTGATGCCCTTGGAAGTCCGGACGAAACGCGC
modifications: expressed or natural sequence
B10: RA174 (nucleic acid)
DNA: GCGCGTCCTGGATTCGCGGAAACGCGTACATCCAGCCGGAATACCAGCATCGTCTTGATGCCCTTGGAAGTCCGTGACGAGTCCCAAATAGGACGAAACGCGC
modifications: expressed or natural sequence
B11: RA183 (nucleic acid)
DNA: GCGCGTCCTGGATTCGCGGAAACGCGTACATCCAGCTGAGAATACCAGCATCGTCTTGATGCCCTTGGAAGTCTACGAGTCCCAAATAGGACGAAACGCGC
modifications: expressed or natural sequence
B12: RA001 (nucleic acid)
DNA: GCGCGTCCTGGATTCGCGGAAACGCGTACATCCAGCTGACGAGTCCCAAATAGGACGAAACGCGCAGTGATACCAGCATCGTCTTGATGCCCTTGGCAGCACT
modifications: expressed or natural sequence
B13: RA187 (nucleic acid)
DNA: B12 DNA with A66G, G67A, T68G, G69A, C97A, C100T, A101C, C102T, T103C
modifications: expressed or natural sequence
B14: RA017 (nucleic acid)
DNA: GCGCGTCCTGGCGGAATACCAGCATCGTCTTGATGCCCTTGGAAGTCCGATTCGCGGAAACGCGTACATCCAGCTGACGAGTCCCAAATAGGACGAAACGCGC
modifications: expressed or natural sequence
B15: RA188 (nucleic acid)
DNA: GCGCGTCCTGGATTCGCGGAAACGCGTACATCCAGCTGACGAGTCCCAAATAGGACGAAGAGAATACCAGCATCGTCTTGATGCCCTTGGAAGTCTCACGCGC
modifications: expressed or natural sequence
B16: RA182 (nucleic acid)
DNA: GCGCGTCCTGGATTCGCGGAAACGCGGAGAATACCAGCATCGTCTTGATGCCCTTGGAAGTCTCTACATCCAGCTGACGAGTCCCAAATAGGACGAAACGCGC
modifications: expressed or natural sequence
B17: RA191 (nucleic acid)
DNA: GCGCGTCCTGGATTCGCGGAACGAGAATACCAGCATCGTCTTGATGCCCTTGGAAGTCTCGACGCGTACATCCAGCTGACGAGTCCCAAATAGGACGAAACGCGC
modifications: expressed or natural sequence
B18: RA180 (nucleic acid)
DNA: GCGCGTCCTGGATTCGCGGAAACGCGTACATCCAGCTGGAGAATACCAGCATCGTCTTGATGCCCTTGGAAGTCTCACGAGTCCCAAATAGGACGAAACGCGC
modifications: expressed or natural sequence
B19: RA175 (nucleic acid)
DNA: GCGCGTCCTGGATTCGCGGAAACGCGTACATCCAGCTGACGAGTCCCAAATAGGACGAAACGCGCCGAGAATACCAGCATCGTCTTGATGCCCTTGGAAGTCTCG
modifications: expressed or natural sequence
B20: RA186 (nucleic acid)
DNA: GCGCGTCCTGGATTCGCGCGAGAATACCAGCATCGTCTTGATGCCCTTGGAAGTCTCGGAAACGCGTACATCCAGCTGACGAGTCCCAAATAGGACGAAACGCGC
modifications: expressed or natural sequence
B21: RA185 (nucleic acid)
DNA: GCGCGTCCTGGATTCGCGGAAACGCGTACATCCAGCTGACGAGTCCCAAATACGGAATACCAGCATCGTCTTGATGCCCTTGGAAGTCCGGGACGAAACGCGC
modifications: expressed or natural sequence
B22: RA170 (nucleic acid)
DNA: GCGCGTCCTGGATTCGCGGAAACGCGTACATCCAGCTGACGAGTCCCAAATAGGACGAAACGCAGAATACCAGCATCGTCTTGATGCCCTTGGAAGTCTGC
modifications: expressed or natural sequence
B23: RA172 (nucleic acid)
DNA: AGAATACCAGCATCGTCTTGATGCCCTTGGAAGTCTGCGCGTCCTGGATTCGCGGAAACGCGTACATCCAGCTGACGAGTCCCAAATAGGACGAAACGCGC
modifications: expressed or natural sequence
B24: RA171 (nucleic acid)
DNA: GCGCGTCCTGGATTCGCGGAAACGCGTACACGAGAATACCAGCATCGTCTTGATGCCCTTGGAAGTCTCGTCCAGCTGACGAGTCCCAAATAGGACGAAACGCGC
modifications: expressed or natural sequence
B25: RA018 (nucleic acid)
DNA: GCGCGTCCTGGATTCGCGGAAACGCGTACATCCAGCTGACGAGTCCCAAAGTGATACCAGCATCGTCTTGATGCCCTTGGCAGCACTATAGGACGAAACGCGC
modifications: expressed or natural sequence
B26: RA184 (nucleic acid)
DNA: GAGAATACCAGCATCGTCTTGATGCCCTTGGAAGTCTCGCGTCCTGGATTCGCGGAAACGCGTACATCCAGCTGACGAGTCCCAAATAGGACGAAACGCGC
modifications: expressed or natural sequence
B27: RA190 (nucleic acid)
DNA: GCGCGTCCTGGATTCGCGAGTGATACCAGCATCGTCTTGATGCCCTTGGCAGCACTGAAACGCGTACATCCAGCTGACGAGTCCCAAATAGGACGAAACGCGC
modifications: expressed or natural sequence

Each molecule was assayed on Renilla luciferase RNA (assay: Barcoded aptazyme variant library screen: un-cleaved Renilla luciferase RNA by barcode read counts, HEK293-T cells). Conditions: un-cleaved Renilla luciferase RNA, HEK293-T cells cultured with 1 mM theophylline (ON) over without theophylline (OFF); barcode read counts, triplicate.
Type: cell-based
Procedure, shortened: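 Barcode sequencing of cDNA versus DNA, normalized per aptazyme, gave the un-cleaved Renilla luciferase RNA fraction and fold-change with versus without theophylline (triplicates). Library: T3H48 ribozyme with one of seven theophylline aptamer variants inserted at each position, placed in the Renilla 3′ UTR of a dual-luciferase vector.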

B1 and B2 are the same in “Fold change in RNA expression between the ON state and the OFF state” value (“Fold change” below): 1.3 fold for the first, 1.3 fold for the second.

B3 and B4 are the same in “Fold change” value: 1.3 fold for the first, 1.3 fold for the second.

B5 and B6 are the same in “Fold change” value: 1.3 fold for the first, 1.3 fold for the second.

Compared with B7, B8 is lower in “Fold change” value: 1.3 fold for the first, 1.2 fold for the second.

B9 and B10 are the same in “Fold change” value: 1.3 fold for the first, 1.3 fold for the second.

B11 and B13 are the same in “Fold change” value: 1.3 fold for the first, 1.3 fold for the second.

First: B14
Second: B15
The “Fold change” value of the first is higher: 2.8 fold for the first, 1.2 fold for the second.

Compared with B16, B17 is lower in “Fold change” value: 1.3 fold for the first, 1.2 fold for the second.

B18 and B19 are the same in “Fold change” value: 1.3 fold for the first, 1.3 fold for the second.

B20 and B21 are the same in “Fold change” value: 1.3 fold for the first, 1.3 fold for the second.

B22 and B23 are the same in “Fold change” value: 1.3 fold for the first, 1.3 fold for the second.

Compared with B24, B25 is higher in “Fold change” value: 1.3 fold for the first, 2.8 fold for the second.

First: B26
Second: B27
The “Fold change” value of the first is higher: 1.3 fold for the first, 1.2 fold for the second.

For B12, the “Fold change” value was over 6 fold.
